Data from PMC3341331 (PLoS Neglected Tropical Diseases, 2012).

Target: recombinant E protein domain III of DENV-2, flag and hexahistidine tagged (Dengue virus type 2, strain 16681 …, UniProt P29990)
Test: SPR
Settings: both partners purified

B1: humanized DB32-6 monoclonal antibody (antibody, V domains shown)
VH: EVQLQQSGAELVKPGASVNLSCTASGFNIKDTYIHWVKQRPEQGLEWIGRIDPENGNAKYDPNFQAKATIAADTSSNTAYLQLSSLTSEDTAVYYCVRTGSFWYFDVWGQGTLVTVSS
VL: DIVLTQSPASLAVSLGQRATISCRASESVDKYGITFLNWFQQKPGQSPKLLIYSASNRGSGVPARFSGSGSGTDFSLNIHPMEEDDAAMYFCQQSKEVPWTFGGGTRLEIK
- Kd: 0.18 nM
